US20160024496
Like-named read-outs stand apart in the source and are kept apart here.

Experiments:
[1] = target: T1, TCL1B (Homo sapiens) (UniProt O95988); conditions: proteome array, scrambled control
T1 sequence: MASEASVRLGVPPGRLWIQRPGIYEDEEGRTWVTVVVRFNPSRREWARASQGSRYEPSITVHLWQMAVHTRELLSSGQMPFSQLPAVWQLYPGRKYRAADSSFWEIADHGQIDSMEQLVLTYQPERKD

[2] = target: PGA5 (Homo sapiens) (UniProt P0DJD9); conditions: proteome array, scrambled control
[3] = target: T2, ADARB2 (Homo sapiens) (UniProt Q9NS39); conditions: proteome array, scrambled control
T2 sequence: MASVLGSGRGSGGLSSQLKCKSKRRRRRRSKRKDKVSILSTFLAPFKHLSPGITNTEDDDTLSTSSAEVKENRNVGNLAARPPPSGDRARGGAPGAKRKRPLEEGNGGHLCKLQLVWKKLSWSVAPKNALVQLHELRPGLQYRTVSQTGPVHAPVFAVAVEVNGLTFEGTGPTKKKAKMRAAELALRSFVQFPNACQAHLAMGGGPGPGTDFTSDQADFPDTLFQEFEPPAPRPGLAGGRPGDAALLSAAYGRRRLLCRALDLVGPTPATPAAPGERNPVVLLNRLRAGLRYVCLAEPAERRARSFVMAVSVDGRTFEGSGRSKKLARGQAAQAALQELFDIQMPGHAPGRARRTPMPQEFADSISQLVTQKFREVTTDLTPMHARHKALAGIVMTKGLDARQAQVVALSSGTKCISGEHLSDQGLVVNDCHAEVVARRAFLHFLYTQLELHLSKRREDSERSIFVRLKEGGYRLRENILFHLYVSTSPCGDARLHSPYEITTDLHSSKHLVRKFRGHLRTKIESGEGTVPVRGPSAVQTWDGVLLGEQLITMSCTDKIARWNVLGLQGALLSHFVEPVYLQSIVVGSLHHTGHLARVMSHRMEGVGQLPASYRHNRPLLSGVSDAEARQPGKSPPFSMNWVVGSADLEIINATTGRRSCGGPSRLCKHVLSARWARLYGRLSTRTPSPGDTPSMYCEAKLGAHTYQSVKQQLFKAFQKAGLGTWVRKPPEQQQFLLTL

[4] = target: T3, NDST1 (Homo sapiens) (UniProt P52848); conditions: proteome array, scrambled control
T3 sequence: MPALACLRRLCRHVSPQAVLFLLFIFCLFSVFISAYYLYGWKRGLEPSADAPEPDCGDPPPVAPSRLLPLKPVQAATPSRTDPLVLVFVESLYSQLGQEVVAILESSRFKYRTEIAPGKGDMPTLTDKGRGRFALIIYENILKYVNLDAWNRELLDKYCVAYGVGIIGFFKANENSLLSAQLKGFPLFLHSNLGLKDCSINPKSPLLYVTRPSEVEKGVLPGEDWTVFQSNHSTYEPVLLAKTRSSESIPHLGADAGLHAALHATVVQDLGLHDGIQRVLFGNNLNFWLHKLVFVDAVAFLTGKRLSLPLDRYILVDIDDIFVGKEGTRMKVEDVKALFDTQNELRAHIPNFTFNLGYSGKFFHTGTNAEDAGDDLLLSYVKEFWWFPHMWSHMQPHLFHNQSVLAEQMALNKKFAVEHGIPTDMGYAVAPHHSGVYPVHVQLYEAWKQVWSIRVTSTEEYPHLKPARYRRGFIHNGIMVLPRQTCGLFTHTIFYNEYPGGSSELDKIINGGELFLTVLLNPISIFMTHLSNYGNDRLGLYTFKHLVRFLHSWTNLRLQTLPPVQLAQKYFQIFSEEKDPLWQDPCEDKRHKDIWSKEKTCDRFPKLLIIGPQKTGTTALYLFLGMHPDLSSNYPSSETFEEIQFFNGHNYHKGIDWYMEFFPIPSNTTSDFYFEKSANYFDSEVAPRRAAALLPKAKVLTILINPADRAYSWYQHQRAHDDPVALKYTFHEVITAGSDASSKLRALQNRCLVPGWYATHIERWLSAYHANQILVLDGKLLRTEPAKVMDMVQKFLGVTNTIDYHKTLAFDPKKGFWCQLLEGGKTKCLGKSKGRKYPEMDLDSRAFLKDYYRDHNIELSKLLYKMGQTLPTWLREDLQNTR

[5] = target: T4, MPP7 (Homo sapiens) (UniProt Q5T2T1); conditions: proteome array, scrambled control
T4 sequence: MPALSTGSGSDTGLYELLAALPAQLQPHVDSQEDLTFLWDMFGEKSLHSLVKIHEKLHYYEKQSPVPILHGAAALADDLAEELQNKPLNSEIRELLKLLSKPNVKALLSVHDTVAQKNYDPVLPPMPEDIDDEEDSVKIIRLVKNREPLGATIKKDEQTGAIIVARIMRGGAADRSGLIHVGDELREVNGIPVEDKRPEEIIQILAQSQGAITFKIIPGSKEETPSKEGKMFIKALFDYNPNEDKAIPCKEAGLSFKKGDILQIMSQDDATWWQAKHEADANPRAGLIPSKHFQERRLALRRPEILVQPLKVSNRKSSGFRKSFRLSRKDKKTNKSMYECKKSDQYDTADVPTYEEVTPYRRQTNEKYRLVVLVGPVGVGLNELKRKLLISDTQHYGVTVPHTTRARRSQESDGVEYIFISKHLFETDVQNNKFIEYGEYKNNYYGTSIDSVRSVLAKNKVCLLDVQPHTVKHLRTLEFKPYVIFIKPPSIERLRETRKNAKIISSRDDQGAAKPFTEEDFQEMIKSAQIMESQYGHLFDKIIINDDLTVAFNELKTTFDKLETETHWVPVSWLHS

[6] = tested on: T5, DPH2 (Homo sapiens), Q9BQC3-2; conditions: proteome array
T5 sequence: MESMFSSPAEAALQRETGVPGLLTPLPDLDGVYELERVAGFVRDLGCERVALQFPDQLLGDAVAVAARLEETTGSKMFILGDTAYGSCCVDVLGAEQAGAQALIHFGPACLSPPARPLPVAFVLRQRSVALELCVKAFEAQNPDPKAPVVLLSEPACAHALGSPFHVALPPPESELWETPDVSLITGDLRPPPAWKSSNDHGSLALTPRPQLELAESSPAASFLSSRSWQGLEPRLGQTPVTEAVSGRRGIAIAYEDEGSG

[7] = tested on: T6, DAZ2 (Homo sapiens), Q13117-3; conditions: proteome array, scrambled control
T6 sequence: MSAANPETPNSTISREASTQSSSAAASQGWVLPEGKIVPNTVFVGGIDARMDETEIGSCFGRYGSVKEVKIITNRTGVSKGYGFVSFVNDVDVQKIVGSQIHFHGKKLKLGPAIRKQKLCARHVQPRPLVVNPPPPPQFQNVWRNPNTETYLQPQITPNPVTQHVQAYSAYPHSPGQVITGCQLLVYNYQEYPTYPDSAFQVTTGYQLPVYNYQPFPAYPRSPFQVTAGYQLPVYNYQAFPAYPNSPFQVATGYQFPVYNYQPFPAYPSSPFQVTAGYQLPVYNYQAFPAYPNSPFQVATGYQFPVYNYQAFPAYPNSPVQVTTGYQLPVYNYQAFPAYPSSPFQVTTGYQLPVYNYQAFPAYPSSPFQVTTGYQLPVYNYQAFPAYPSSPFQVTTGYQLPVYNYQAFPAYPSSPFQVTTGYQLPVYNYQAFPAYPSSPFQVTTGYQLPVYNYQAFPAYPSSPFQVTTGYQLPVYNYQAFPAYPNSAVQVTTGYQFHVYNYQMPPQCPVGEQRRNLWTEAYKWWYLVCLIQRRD

[8] = tested on: MITF (Homo sapiens), O75030-2; conditions: proteome array, scrambled control
[9] = target: T7, PTER (Homo sapiens) (UniProt Q96BW5); conditions: proteome array, scrambled control
T7 sequence: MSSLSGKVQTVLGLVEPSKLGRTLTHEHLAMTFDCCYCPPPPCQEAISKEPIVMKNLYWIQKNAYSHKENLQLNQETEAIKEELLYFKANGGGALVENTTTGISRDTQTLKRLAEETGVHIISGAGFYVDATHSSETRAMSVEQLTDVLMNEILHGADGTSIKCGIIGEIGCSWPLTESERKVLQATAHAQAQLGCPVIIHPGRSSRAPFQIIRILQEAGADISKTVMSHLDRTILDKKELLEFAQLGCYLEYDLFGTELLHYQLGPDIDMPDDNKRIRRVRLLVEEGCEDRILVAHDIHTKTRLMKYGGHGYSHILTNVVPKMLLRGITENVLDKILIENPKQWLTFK

[10] = target: T8, NUDT6 (Homo sapiens) (UniProt P53370); conditions: proteome array, scrambled control
T8 sequence: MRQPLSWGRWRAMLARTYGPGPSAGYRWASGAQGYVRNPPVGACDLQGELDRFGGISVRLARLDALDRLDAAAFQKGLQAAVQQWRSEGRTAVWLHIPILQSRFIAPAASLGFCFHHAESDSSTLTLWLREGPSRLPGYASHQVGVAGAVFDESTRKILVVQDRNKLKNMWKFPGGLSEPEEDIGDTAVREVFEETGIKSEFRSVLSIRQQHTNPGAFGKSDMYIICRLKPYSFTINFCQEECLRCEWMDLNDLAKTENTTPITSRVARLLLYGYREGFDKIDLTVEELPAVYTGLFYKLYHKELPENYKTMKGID

[11] = target: JARID2 (Homo sapiens) (UniProt Q92833); conditions: proteome array, scrambled control
[12] = target: CYP2C9 (Homo sapiens) (UniProt P11712); conditions: proteome array, scrambled control
[13] = target: WBP11 (Homo sapiens) (UniProt Q9Y2W2); conditions: proteome array, scrambled control
[14] = tested on: ZNF695 (Homo sapiens), Q8IW36-1; conditions: proteome array
[15] = tested on: SOX6 (Homo sapiens), P35712-4; conditions: proteome array, scrambled control
[16] = target: T9, HMGB2 (Homo sapiens) (UniProt P26583); conditions: proteome array, scrambled control
T9 sequence: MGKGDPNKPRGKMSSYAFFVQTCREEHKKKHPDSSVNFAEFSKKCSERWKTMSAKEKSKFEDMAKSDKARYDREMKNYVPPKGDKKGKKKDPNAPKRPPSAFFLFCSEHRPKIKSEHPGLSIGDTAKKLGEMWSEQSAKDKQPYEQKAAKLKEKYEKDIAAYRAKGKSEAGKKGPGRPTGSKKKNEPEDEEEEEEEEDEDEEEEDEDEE

[17] = target: T10, RANGAP1 (Homo sapiens) (UniProt P46060); conditions: proteome array, scrambled control
T10 sequence: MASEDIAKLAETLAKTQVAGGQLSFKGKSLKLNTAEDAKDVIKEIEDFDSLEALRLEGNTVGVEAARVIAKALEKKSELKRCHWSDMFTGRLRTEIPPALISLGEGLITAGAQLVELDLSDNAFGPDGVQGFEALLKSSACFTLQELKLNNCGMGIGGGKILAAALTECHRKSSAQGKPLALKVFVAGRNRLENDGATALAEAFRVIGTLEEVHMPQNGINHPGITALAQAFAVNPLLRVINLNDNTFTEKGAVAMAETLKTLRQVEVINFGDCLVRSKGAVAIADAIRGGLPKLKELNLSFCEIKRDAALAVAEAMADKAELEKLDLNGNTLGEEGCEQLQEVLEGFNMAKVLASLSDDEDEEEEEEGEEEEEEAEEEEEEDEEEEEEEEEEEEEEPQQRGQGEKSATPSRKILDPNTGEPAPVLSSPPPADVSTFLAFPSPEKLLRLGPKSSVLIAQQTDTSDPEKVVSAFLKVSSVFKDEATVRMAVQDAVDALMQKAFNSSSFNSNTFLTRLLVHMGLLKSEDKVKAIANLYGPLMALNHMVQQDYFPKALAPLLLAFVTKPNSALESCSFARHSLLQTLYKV

[18] = target: T11, ORAOV1 (Homo sapiens) (UniProt Q8WV07); conditions: proteome array, scrambled control
T11 sequence: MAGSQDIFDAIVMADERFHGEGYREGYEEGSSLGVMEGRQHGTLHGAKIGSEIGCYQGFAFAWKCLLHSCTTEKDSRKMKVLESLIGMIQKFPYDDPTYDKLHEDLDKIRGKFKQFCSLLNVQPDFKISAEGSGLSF

[19] = target: TRIM32 (Homo sapiens) (UniProt Q13049); conditions: proteome array, scrambled control
Chain of TRIM32 (Homo sapiens) (Q13049 whole entry): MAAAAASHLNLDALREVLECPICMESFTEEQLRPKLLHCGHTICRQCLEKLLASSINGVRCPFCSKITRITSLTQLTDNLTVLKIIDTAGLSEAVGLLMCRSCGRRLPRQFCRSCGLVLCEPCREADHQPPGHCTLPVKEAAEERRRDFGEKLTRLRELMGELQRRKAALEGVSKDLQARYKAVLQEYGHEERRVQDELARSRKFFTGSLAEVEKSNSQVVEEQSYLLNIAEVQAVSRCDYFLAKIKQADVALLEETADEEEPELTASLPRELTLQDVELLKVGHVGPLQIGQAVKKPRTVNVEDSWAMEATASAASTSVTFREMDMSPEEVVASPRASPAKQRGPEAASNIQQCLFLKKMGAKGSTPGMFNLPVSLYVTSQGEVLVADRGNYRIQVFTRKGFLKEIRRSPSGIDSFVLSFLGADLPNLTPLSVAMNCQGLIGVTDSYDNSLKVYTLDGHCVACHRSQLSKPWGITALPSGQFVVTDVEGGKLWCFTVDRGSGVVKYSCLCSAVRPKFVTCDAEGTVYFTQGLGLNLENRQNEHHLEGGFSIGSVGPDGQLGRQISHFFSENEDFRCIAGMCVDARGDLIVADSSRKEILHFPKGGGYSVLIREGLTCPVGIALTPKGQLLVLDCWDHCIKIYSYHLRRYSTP

Chain of ZNF695 (Homo sapiens), Q8IW36-1 (Q8IW36 other isoform, or with tags, fused parts or gaps): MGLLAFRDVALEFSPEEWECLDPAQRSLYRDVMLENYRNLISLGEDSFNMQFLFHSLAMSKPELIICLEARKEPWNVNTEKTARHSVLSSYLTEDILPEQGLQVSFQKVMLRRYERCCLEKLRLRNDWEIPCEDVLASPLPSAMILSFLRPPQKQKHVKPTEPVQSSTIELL
Chain of CYP2C9 (Homo sapiens) (P11712 whole entry): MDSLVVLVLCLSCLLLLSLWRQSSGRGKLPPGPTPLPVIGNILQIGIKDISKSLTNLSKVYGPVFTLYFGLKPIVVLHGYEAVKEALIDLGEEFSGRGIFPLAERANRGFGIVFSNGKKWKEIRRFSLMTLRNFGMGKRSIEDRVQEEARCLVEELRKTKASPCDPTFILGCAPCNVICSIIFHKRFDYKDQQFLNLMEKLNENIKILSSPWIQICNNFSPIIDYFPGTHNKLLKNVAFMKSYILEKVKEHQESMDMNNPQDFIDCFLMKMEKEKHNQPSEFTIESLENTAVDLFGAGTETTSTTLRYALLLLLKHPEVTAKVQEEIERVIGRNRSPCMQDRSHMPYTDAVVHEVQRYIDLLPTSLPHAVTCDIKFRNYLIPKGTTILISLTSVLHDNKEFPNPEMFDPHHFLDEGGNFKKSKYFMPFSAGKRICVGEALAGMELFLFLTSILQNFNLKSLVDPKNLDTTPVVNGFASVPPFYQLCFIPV
Chain of WBP11 (Homo sapiens) (Q9Y2W2 whole entry): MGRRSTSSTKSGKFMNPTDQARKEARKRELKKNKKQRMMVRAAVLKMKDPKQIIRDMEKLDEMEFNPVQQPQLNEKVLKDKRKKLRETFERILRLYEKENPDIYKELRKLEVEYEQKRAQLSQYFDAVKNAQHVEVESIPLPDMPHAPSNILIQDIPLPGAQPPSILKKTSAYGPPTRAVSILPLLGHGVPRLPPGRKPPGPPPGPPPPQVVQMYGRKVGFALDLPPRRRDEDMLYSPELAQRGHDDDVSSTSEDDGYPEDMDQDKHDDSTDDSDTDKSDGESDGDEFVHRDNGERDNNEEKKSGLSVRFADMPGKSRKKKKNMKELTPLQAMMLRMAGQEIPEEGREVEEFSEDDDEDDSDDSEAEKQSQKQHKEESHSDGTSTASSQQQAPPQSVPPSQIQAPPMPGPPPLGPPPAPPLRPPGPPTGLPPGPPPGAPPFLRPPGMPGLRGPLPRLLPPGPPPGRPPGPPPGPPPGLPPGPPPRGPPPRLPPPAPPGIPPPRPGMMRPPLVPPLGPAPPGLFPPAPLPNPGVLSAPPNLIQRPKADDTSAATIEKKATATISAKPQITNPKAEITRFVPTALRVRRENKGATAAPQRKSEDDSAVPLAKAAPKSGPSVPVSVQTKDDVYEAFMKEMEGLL
Chain of MITF (Homo sapiens), O75030-2 (O75030 other isoform, or with tags, fused parts or gaps): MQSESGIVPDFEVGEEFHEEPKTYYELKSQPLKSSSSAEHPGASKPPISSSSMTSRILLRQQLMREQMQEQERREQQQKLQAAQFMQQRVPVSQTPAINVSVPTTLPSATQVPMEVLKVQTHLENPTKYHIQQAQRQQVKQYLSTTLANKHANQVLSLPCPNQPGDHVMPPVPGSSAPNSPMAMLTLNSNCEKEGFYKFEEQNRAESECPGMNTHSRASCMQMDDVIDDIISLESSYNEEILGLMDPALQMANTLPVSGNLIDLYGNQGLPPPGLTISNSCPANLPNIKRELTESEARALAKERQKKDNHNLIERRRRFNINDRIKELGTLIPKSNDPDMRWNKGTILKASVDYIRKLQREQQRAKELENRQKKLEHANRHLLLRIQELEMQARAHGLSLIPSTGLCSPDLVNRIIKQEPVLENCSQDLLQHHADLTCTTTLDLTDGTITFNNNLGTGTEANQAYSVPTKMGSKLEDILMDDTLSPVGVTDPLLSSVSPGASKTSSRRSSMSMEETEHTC
Chain of PGA5 (Homo sapiens) (P0DJD9 16-388): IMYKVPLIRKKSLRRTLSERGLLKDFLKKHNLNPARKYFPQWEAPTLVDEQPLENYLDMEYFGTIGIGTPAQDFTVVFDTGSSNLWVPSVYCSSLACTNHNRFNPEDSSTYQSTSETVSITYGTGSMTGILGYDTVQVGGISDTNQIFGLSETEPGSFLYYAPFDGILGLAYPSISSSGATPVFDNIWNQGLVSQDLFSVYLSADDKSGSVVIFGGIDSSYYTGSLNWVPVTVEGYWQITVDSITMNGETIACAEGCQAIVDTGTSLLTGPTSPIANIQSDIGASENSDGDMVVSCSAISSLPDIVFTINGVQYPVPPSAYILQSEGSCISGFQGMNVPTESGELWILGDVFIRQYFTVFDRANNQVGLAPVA
Chain of SOX6 (Homo sapiens), P35712-4 (P35712 other isoform, or with tags, fused parts or gaps): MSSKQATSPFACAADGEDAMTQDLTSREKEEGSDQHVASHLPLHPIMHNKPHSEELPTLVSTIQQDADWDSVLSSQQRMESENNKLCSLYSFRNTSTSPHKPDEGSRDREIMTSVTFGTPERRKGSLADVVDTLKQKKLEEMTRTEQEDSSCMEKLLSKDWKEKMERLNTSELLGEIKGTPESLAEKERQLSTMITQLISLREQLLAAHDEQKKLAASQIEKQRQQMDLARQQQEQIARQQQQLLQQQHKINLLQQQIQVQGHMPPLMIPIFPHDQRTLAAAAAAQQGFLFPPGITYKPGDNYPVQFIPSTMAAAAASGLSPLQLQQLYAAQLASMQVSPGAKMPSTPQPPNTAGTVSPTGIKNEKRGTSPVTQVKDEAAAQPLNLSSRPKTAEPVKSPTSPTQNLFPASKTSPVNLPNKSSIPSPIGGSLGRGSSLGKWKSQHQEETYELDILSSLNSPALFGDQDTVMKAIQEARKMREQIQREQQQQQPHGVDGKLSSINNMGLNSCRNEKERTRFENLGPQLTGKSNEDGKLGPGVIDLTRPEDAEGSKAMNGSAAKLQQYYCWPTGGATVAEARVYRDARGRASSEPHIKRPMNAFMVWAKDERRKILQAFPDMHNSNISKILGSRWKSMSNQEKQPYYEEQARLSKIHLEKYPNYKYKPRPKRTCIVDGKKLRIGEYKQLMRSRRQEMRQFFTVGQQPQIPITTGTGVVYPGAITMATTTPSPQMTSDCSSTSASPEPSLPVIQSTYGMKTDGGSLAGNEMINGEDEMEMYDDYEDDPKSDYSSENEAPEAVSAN
Chain of JARID2 (Homo sapiens) (Q92833 whole entry): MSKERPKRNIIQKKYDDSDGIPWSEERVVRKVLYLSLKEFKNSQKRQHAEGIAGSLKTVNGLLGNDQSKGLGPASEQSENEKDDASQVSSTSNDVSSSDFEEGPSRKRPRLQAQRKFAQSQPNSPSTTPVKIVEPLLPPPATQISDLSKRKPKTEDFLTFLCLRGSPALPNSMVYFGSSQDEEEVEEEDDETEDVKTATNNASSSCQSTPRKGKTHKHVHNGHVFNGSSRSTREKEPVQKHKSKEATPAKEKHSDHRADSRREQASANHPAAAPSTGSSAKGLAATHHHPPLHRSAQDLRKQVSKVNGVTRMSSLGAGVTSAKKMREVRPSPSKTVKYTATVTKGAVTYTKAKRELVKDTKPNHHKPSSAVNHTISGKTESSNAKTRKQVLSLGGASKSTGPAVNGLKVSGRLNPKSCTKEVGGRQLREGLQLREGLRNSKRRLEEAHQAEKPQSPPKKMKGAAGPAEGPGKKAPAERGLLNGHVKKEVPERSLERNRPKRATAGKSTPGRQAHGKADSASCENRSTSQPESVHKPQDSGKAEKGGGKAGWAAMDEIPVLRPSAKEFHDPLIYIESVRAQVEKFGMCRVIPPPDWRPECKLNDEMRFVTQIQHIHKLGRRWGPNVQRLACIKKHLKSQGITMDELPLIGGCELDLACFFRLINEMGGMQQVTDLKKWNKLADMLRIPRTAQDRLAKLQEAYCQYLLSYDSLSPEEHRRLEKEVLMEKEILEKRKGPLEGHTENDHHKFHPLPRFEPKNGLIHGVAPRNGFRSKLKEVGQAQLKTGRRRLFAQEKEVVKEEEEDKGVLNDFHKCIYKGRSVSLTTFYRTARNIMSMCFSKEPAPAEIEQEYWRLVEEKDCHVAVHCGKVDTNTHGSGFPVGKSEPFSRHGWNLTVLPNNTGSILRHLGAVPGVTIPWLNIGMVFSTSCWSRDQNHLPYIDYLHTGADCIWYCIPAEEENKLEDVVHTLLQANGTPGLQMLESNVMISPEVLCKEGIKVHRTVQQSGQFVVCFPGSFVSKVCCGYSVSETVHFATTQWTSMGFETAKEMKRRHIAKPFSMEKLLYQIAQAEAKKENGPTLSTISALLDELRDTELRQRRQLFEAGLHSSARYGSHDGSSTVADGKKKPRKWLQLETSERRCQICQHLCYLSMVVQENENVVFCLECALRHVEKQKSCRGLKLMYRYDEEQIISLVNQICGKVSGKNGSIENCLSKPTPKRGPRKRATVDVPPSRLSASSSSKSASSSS

Substance: GC-scrambled RNA
- binding signal [1]: 5.42 Z-score
- binding signal [2]: 2.96 Z-score
- binding signal [3]: -0.2 Z-score
- binding signal [4]: 8.06 Z-score
- binding signal [5]: 0.3 Z-score
- binding signal ([6]; scrambled control): 3.43 Z-score
- binding signal [7]: 7.8 Z-score
- binding signal [8]: 6.71 Z-score
- binding signal [9]: 4.09 Z-score
- binding signal [10]: 8.38 Z-score
- binding signal [11]: 0.64 Z-score
- binding signal [12]: 1.49 Z-score
- binding signal [13]: -0.17 Z-score
- binding signal ([14]; scrambled control): 2.18 Z-score
- binding signal [15]: 1.16 Z-score
- binding signal [16]: 1.23 Z-score
- binding signal [17]: 1.21 Z-score
- binding signal [18]: 0.41 Z-score
- binding signal [19]: 4.63 Z-score

Substance: GGGGCCGGGGCCGGGGCCGGGGCCGGGGCCGGGGCCGGG [GGGGCCx6.5 RNA]
- binding signal ([6]; [none], delta Z 10.61): 14 Z-score
- binding signal ([14]; [none], delta Z 2.58): 4.76 Z-score
